Experimental findings from the supplement of paper PMC9112550, “Optimization of the antimicrobial peptide Bac7 by deep mutational scanning” (BMC Biology, 2022) are described below.

The subject of this data set is Escherichia coli TOP10. Description: shrunken log2 fold change of peptide-encoding DNA abundance (4.5 h post-induction vs induction); higher = less antimicrobial activity (less host growth inhibition). The note with it: time post-induction: 4.5 h; library: site-saturation at positions 5, 18, 19, 20.
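Further: peptides expressed intracellularly from a pBAD plasmid library in pooled LB shake-flask culture, induced with 0.3% L-arabinose, DNA abundance read by NGS, three biological replicates, DESeq2 with apeglm shrinkage.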

With RRIRYRPPRLPRPRPRPREYPRP, the “shrunken log2 fold change” value is 0.0168. With RRIRHRPPRLPRPRPRPMHSPRP the figure was 0.0758; with RRIRMRPPRLPRPRPRPVSSPRP, -0.0703. Turning to RRIRRRPPRLPRPRPRPEKPPRP, the “shrunken log2 fold change” value was determined as 0.376. RRIRPRPPRLPRPRPRPGCMPRP: the “shrunken log2 fold change” value worked out at 0.179. As to RRIRCRPPRLPRPRPRPKNFPRP, the “shrunken log2 fold change” value was -0.555. With RRIRPRPPRLPRPRPRPHTVPRP the figure was -0.214. With RRIRCRPPRLPRPRPRPNCCPRP, the “shrunken log2 fold change” value came out at 0.188. With RRIRNRPPRLPRPRPRPQLSPRP the figure was -0.2.

As for RRIRLRPPRLPRPRPRPVYGPRP, the “shrunken log2 fold change” value is -0.183. On to RRIRDRPPRLPRPRPRPDVTPRP, for which the “shrunken log2 fold change” value came out at 0.149. Turning to RRIRTRPPRLPRPRPRPHVVPRP, the “shrunken log2 fold change” value was -0.0414.

Turning to RRIRMRPPRLPRPRPRPTKPPRP, the “shrunken log2 fold change” value is 0.0618. On to RRIRWRPPRLPRPRPRPADFPRP, for which the “shrunken log2 fold change” value is -0.0275. As to RRIRVRPPRLPRPRPRPNQNPRP, the “shrunken log2 fold change” value is -0.312.

Consider RRIRCRPPRLPRPRPRPTQAPRP, for which the “shrunken log2 fold change” value is 0.199.

As to RRIRDRPPRLPRPRPRPHQIPRP, the “shrunken log2 fold change” value was -0.248. With RRIRRRPPRLPRPRPRPKSAPRP the figure was 0.237; with RRIRRRPPRLPRPRPRPILDPRP, 0.0526; with RRIRTRPPRLPRPRPRPFITPRP, -0.689. As for RRIRYRPPRLPRPRPRPPQIPRP, the “shrunken log2 fold change” value is -0.178. The same measure for RRIRQRPPRLPRPRPRPKNDPRP: -0.379. With RRIRVRPPRLPRPRPRPEKLPRP the figure was 0.0465; with RRIRPRPPRLPRPRPRPLKNPRP, 0.186. With RRIRERPPRLPRPRPRPNCMPRP the figure was -0.526; with RRIRHRPPRLPRPRPRPHERPRP, -0.00134; with RRIRVRPPRLPRPRPRPHSGPRP, -0.022. Take RRIRCRPPRLPRPRPRPQWNPRP: the “shrunken log2 fold change” value is 0.618. With RRIRMRPPRLPRPRPRPKPYPRP, the “shrunken log2 fold change” value stood at 0.314. With RRIRHRPPRLPRPRPRPTNPPRP the figure was -0.363; with RRIRIRPPRLPRPRPRPYHCPRP, -0.0272; with RRIRARPPRLPRPRPRPMIKPRP, 0.148. As for RRIRNRPPRLPRPRPRPHRIPRP, the “shrunken log2 fold change” value was -0.0314. With RRIRTRPPRLPRPRPRPSVHPRP the figure was -0.237; with RRIRFRPPRLPRPRPRPEPWPRP, 0.172. With RRIRMRPPRLPRPRPRPTATPRP the figure was 3.59; with RRIRLRPPRLPRPRPRPDVGPRP, -0.0266.

With RRIRKRPPRLPRPRPRPYLYPRP, the “shrunken log2 fold change” value was -0.404. For the sequence RRIRQRPPRLPRPRPRPTGQPRP, the “shrunken log2 fold change” value was determined as 0.146. Turning to RRIRLRPPRLPRPRPRPQDTPRP, the “shrunken log2 fold change” value is -0.409. Regarding RRIRIRPPRLPRPRPRPSMDPRP, the “shrunken log2 fold change” value was -0.353.

Turning to RRIRGRPPRLPRPRPRPMFPPRP, the “shrunken log2 fold change” value was 0.193. With RRIRRRPPRLPRPRPRPFYAPRP the figure was -0.0129; with RRIRERPPRLPRPRPRPSKNPRP, -0.895; with RRIRARPPRLPRPRPRPAFVPRP, 0.315. On to RRIRERPPRLPRPRPRPMNCPRP, for which the “shrunken log2 fold change” value was 0.0528. The same measure for RRIRIRPPRLPRPRPRPCFCPRP: -0.422; for RRIRHRPPRLPRPRPRPHPYPRP: -0.462. The same measure for RRIRQRPPRLPRPRPRPVKRPRP: 0.103; for RRIRYRPPRLPRPRPRPTWNPRP: -0.424; for RRIRRRPPRLPRPRPRPQSCPRP: 0.107. With RRIRMRPPRLPRPRPRPESWPRP the figure was 1.52; with RRIRVRPPRLPRPRPRPTSAPRP, 0.0866; with RRIRVRPPRLPRPRPRPWFRPRP, -0.304. Turning to RRIRNRPPRLPRPRPRPDPGPRP, the “shrunken log2 fold change” value was 0.0569. As for RRIRFRPPRLPRPRPRPDPPPRP, the “shrunken log2 fold change” value is 0.37. In the case of RRIRYRPPRLPRPRPRPSMNPRP, the “shrunken log2 fold change” value is -0.863. As to RRIRIRPPRLPRPRPRPTNTPRP, the “shrunken log2 fold change” value was -0.45. For the sequence RRIRLRPPRLPRPRPRPCCCPRP, the “shrunken log2 fold change” value was -0.117. The same measure for RRIRRRPPRLPRPRPRPFDWPRP: 0.0636; for RRIRWRPPRLPRPRPRPSYAPRP: 0.0124.

For RRIRSRPPRLPRPRPRPNAHPRP, the “shrunken log2 fold change” value was -0.184.

Take RRIRRRPPRLPRPRPRPHVCPRP: the “shrunken log2 fold change” value is 0.0988. The same measure for RRIRFRPPRLPRPRPRPAQQPRP: -0.0456; for RRIRDRPPRLPRPRPRPMCSPRP: 0.261. The same measure for RRIRSRPPRLPRPRPRPAYSPRP: -0.0975; for RRIRCRPPRLPRPRPRPPDPPRP: 0.459.

For the sequence RRIRDRPPRLPRPRPRPAGNPRP, the “shrunken log2 fold change” value is 0.0407. With RRIRNRPPRLPRPRPRPCEAPRP the figure was -0.18; with RRIRARPPRLPRPRPRPHNDPRP, -0.34.

As to RRIRRRPPRLPRPRPRPDKVPRP, the “shrunken log2 fold change” value is -0.053.

In the case of RRIRHRPPRLPRPRPRPNNRPRP, the “shrunken log2 fold change” value was -0.329. As for RRIRDRPPRLPRPRPRPKKDPRP, the “shrunken log2 fold change” value was 0.199. As for RRIRKRPPRLPRPRPRPITPPRP, the “shrunken log2 fold change” value amounted to 0.0433. The same measure for RRIRDRPPRLPRPRPRPFWAPRP: 0.141; for RRIRERPPRLPRPRPRPCVSPRP: -0.0843. The same measure for RRIRDRPPRLPRPRPRPTPQPRP: 0.0786; for RRIRKRPPRLPRPRPRPFHYPRP: -0.0954; for RRIRWRPPRLPRPRPRPPLRPRP: 0.418.

As for RRIRERPPRLPRPRPRPRKKPRP, the “shrunken log2 fold change” value was -0.111. For the sequence RRIRRRPPRLPRPRPRPFHLPRP, the “shrunken log2 fold change” value is -0.184. The same measure for RRIRQRPPRLPRPRPRPNLNPRP: -0.221; for RRIRTRPPRLPRPRPRPYGFPRP: -0.315; for RRIRQRPPRLPRPRPRPNNMPRP: -0.378. For the sequence RRIRLRPPRLPRPRPRPPLHPRP, the “shrunken log2 fold change” value amounted to 0.456. The same measure for RRIRRRPPRLPRPRPRPRKQPRP: -0.0686; for RRIRTRPPRLPRPRPRPLDMPRP: -0.247. With RRIRHRPPRLPRPRPRPDPMPRP, the “shrunken log2 fold change” value was 0.0718. Regarding RRIRHRPPRLPRPRPRPATGPRP, the “shrunken log2 fold change” value was -0.276. The same measure for RRIRSRPPRLPRPRPRPSMVPRP: -0.368; for RRIRNRPPRLPRPRPRPDTSPRP: -0.0648; for RRIRVRPPRLPRPRPRPAQMPRP: 0.126.

With RRIRERPPRLPRPRPRPMHCPRP, the “shrunken log2 fold change” value is -0.0195. For the sequence RRIRWRPPRLPRPRPRPYNNPRP, the “shrunken log2 fold change” value is -0.991. On to RRIRPRPPRLPRPRPRPGWIPRP, for which the “shrunken log2 fold change” value was -0.0354.

With RRIRERPPRLPRPRPRPKIKPRP, the “shrunken log2 fold change” value was -0.6.

RRIRARPPRLPRPRPRPAVPPRP: the “shrunken log2 fold change” value was 0.848. The same measure for RRIRYRPPRLPRPRPRPTQHPRP: -0.309. As to RRIRHRPPRLPRPRPRPHMHPRP, the “shrunken log2 fold change” value was -0.687. In the case of RRIRGRPPRLPRPRPRPACKPRP, the “shrunken log2 fold change” value is 0.923. For the sequence RRIRTRPPRLPRPRPRPIDFPRP, the “shrunken log2 fold change” value is 0.0107.

In the case of RRIRQRPPRLPRPRPRPAWGPRP, the “shrunken log2 fold change” value amounted to 0.34. For RRIRQRPPRLPRPRPRPMNYPRP, the “shrunken log2 fold change” value is -0.182. In the case of RRIRMRPPRLPRPRPRPLYTPRP, the “shrunken log2 fold change” value was -0.116. RRIRMRPPRLPRPRPRPIKWPRP: the “shrunken log2 fold change” value is -0.00876. RRIRARPPRLPRPRPRPHVFPRP: the “shrunken log2 fold change” value came to 0.0326.

Regarding RRIRERPPRLPRPRPRPMNYPRP, the “shrunken log2 fold change” value is -0.981. With RRIRQRPPRLPRPRPRPMPRPRP the figure was 0.0657; with RRIRDRPPRLPRPRPRPFNHPRP, -0.368; with RRIRHRPPRLPRPRPRPKYYPRP, 0.046. For RRIRKRPPRLPRPRPRPFMLPRP, the “shrunken log2 fold change” value was -0.0682. With RRIRVRPPRLPRPRPRPSFRPRP the figure was -0.42. With RRIRRRPPRLPRPRPRPHSYPRP the figure was -0.187; with RRIRRRPPRLPRPRPRPMLTPRP, 0.211; with RRIRNRPPRLPRPRPRPAVGPRP, 0.543.

With RRIRTRPPRLPRPRPRPWTPPRP, the “shrunken log2 fold change” value is -0.00155. With RRIRIRPPRLPRPRPRPLYKPRP, the “shrunken log2 fold change” value is -0.622. For the sequence RRIRLRPPRLPRPRPRPQHHPRP, the “shrunken log2 fold change” value is -0.54.

On to RRIRNRPPRLPRPRPRPAKDPRP, for which the “shrunken log2 fold change” value amounted to 0.0231.

As to RRIRQRPPRLPRPRPRPDAQPRP, the “shrunken log2 fold change” value was -9.3e-05. With RRIRIRPPRLPRPRPRPACKPRP the figure was -0.659; with RRIRTRPPRLPRPRPRPLFFPRP, -0.263. With RRIRNRPPRLPRPRPRPNVFPRP the figure was -0.43; with RRIRSRPPRLPRPRPRPYDWPRP, -0.102. Turning to RRIRLRPPRLPRPRPRPMNFPRP, the “shrunken log2 fold change” value was -0.102.
